Where “and” joins values, the source holds several entries; their conditions need not be identical. Identical values can stand only once.
Test system: C57Bl/6 mice
Test: Protocol 2: ARFP immunization of mice, total anti-ARFP Ig ELISA
Settings: for Titer (ARFP-specific Ig) / ELISA optical density (total anti-ARFP Ig), serum dilution 1/50 / ELISA optical density (total anti-ARFP Ig), serum dilution 1/100 / ELISA optical density (total anti-ARFP Ig), serum dilution 1/200 / ELISA optical density (total anti-ARFP Ig), serum dilution 1/400 / ELISA optical density (total anti-ARFP Ig), serum dilution 1/800 / ELISA optical density (total anti-ARFP Ig), serum dilution 1/1600: individual mice
[1] = 1st immunization (day 0), blood taken prior to immunization, listed as ARFP
[2] = 2nd immunization (day 14), blood taken prior to immunization, listed as ARFP
[3] = 3d immunization (day 29), blood taken prior to immunization, listed as ARFP
[4] = Sacrifice (day 52), listed as ARFP

B1: Fmut8Δ11: truncated recombinant HCV-1a F protein lacking the first 11 N-terminal residues shared with core; SEQ ID NO: 12; produced in E. coli (protein)
chain: PNVTPTVAHRTSSSRVAVRSLVEFTCCRAGALDWVCARRGRLPSGRNLEVDVSLSPRHVGPRAGPGLSPGTLGPSMAMRAADGRDGSCLPVALGLVGAPQTPGVGRAIWVRSSIPSRAASPTSWGTYRSSAPPLEALPGPWRMASGFWRTA
modifications: Hepatitis C virus
With B1 the “Titer (ARFP-specific Ig)” value (1st immunization (day 0), blood taken prior to immunization) was 0, the “ELISA optical density (total anti-ARFP Ig), serum dilution 1/50” value (“ELISA optical density … serum dilution 1/50” below) [1] was 0.211 and 0.209 and 0.199 and 0.218 and 0.323 and 0.278 and 0.229 and 0.166 and 0.236 and 0.243 and 0.247 and 0.208 and 0.206 and 0.205 and 0.217 and the “ELISA optical density (total anti-ARFP Ig), serum dilution 1/100” value (from here on “ELISA optical density … serum dilution 1/100”) [1] was 0.128 and 0.115 (2×) and 0.174 and 0.208 and 0.186 and 0.171 and 0.152 and 0.161 (2×) and 0.145 and 0.134 and 0.132 and 0.142 and 0.127. For the same molecule, the “ELISA optical density (total anti-ARFP Ig), serum dilution 1/200” value (“ELISA optical density … serum dilution 1/200” below) [1] was 0.123 and 0.150 and 0.128 and 0.136 (2×) and 0.114 and 0.111 and 0.121 and 0.113 (2×) and 0.104 and 0.117 and 0.164 and 0.144 and 0.140, the “ELISA optical density (total anti-ARFP Ig), serum dilution 1/400” value (shortened to “ELISA optical density … serum dilution 1/400”) [1] was 0.132 and 0.164 and 0.114 and 0.118 and 0.116 and 0.121 and 0.133 and 0.115 and 0.104 and 0.110 and 0.120 and 0.128 and 0.191 and 0.138 and 0.126 and the “ELISA optical density (total anti-ARFP Ig), serum dilution 1/800” value (“ELISA optical density … serum dilution 1/800” for short) [1] was 0.119 and 0.138 and 0.113 and 0.118 and 0.115 (2×) and 0.117 and 0.128 and 0.108 and 0.103 and 0.105 and 0.123 and 0.134 and 0.137 and 0.114. The “ELISA optical density (total anti-ARFP Ig), serum dilution 1/1600” value (“ELISA optical density … serum dilution 1/1600” below) [1] was 0.138 and 0.122 and 0.109 (2×) and 0.110 and 0.116 and 0.124 and 0.108 and 0.106 and 0.107 and 0.105 and 0.119 and 0.129 and 0.127 and 0.114, the “ELISA optical density … serum dilution 1/50” value [2] was 0.370 and 0.625 and 0.303 and 0.339 and 0.421 and 3.852 and 0.552 and 0.270 and 2.758 and 0.505 and >4.000 (3×) and 0.189 and 3.567 and the “ELISA optical density … serum dilution 1/100” value [2] was 0.187 and 0.306 and 0.155 and 0.164 and 0.156 and 1.842 and 0.204 and 0.153 and 0.560 and 0.191 and 3.323 and 0.141 and 3.184 and >4.000 and 1.876. For the same molecule, the “ELISA optical density … serum dilution 1/200” value [2] was 0.168 and 0.183 and 0.128 and 0.126 and 0.133 and 1.337 and 0.149 and 0.124 and 0.295 and 0.144 and 2.201 and 0.112 and 3.227 and >4.000 and 1.851, the “ELISA optical density … serum dilution 1/400” value [2] was 0.173 and 0.152 and 0.136 and 0.129 and 0.122 and 0.777 and 0.133 and 0.123 and 0.204 and 0.131 and 1.212 and 0.111 and 1.433 and 2.473 and 0.736 and the “ELISA optical density … serum dilution 1/800” value [2] was 0.156 and 0.130 and 0.123 and 0.121 (2×) and 0.539 and 0.125 and 0.124 and 0.173 and 0.122 and 0.622 and 0.113 and 0.790 and 2.199 and 0.427. The “ELISA optical density … serum dilution 1/1600” value [2] was 0.137 and 0.126 and 0.118 and 0.122 and 0.119 and 0.546 and 0.125 and 0.146 and 0.154 and 0.115 and 0.337 and 0.113 and 0.462 and 1.296 and 0.271, the “Titer (ARFP-specific Ig)” value [2] was 0 (9×) and 200 (2×) and 50 and 400 (2×) and >1600 and the “ELISA optical density … serum dilution 1/50” value [3] was 3.831 and 3.849 and 3.373 and 3.573 and 2.987 and 2.874 and 2.626 and 3.470 and 3.517 and 1.225 and 3.635 and 0.801 and 3.936 and 3.926 and >4.000. The “ELISA optical density … serum dilution 1/100” value [3] was 3.525 and 3.898 and 2.898 and 1.264 and 0.982 and 1.468 and 1.197 and 2.613 and 1.648 and 0.560 and >4.000 (2×) and 0.304 and 3.959 and 3.978, the “ELISA optical density … serum dilution 1/200” value [3] was 2.387 and 3.359 and 1.364 and 1.013 and 0.684 and 0.906 and 0.657 and 3.189 and 1.518 and 0.303 and 3.924 and 0.240 and 3.936 and 3.853 and >4.000 and the “ELISA optical density … serum dilution 1/400” value [3] was 1.910 and 2.646 and 1.019 and 0.830 and 0.473 and 0.493 and 0.397 and 3.666 and 1.315 and 0.291 and 3.086 and 0.174 and 3.874 and 3.765 and >4.000. The “ELISA optical density … serum dilution 1/800” value [3] was 1.316 and 1.965 and 0.647 and 0.556 and 0.366 and 0.536 and 0.266 and 3.106 and 1.194 and 0.218 and >4.000 and 0.188 and 3.874 and 3.903 and 3.429, the “ELISA optical density … serum dilution 1/1600” value [3] was 0.770 and 1.960 and 0.558 and 0.428 and 0.284 and 0.513 and 0.298 and 3.423 and 1.055 and 0.187 and 3.573 and 0.266 and 3.907 and 3.939 and 3.210 and the “Titer (ARFP-specific Ig)” value [3] was 800 and >1600 (7×) and 400 (2×) and 100 (2×) and 200 and 50 and 0. For the same molecule, the “ARFP-specific Ig titer, mean+/−standard deviation” value (Protocol 2, before the 2nd immunization) was 190.0+/−401.7, the “anti-ARFP Ig titer, mean+/−standard deviation” value (Protocol 2, day 29) was 883.3+/−694.7 and the “anti-ARFP Ig titer, mean+/−standard deviation” value (Protocol 2, day 52) was 1493+/−272.0. For the same molecule, the “ELISA optical density … serum dilution 1/50” value [4] was 3.593 and 3.623 and 2.931 and 3.934 and 3.865 and >4.000 and 3.796 and 3.843 and 3.456 and 3.855 and 3.717 and 3.534 and 3.636 and 3.780 and 3.783, the “ELISA optical density … serum dilution 1/100” value [4] was 3.071 and 3.581 and 2.555 and 3.459 and >4.000 (2×) and 3.873 and 3.848 and 3.622 and 3.966 and 1.524 and 2.193 and 3.518 and 2.628 and 3.952 and the “ELISA optical density … serum dilution 1/200” value [4] was 1.902 and 1.744 and 1.431 and 2.418 and 2.646 and >4.000 and 3.807 and 3.818 and 3.641 and 3.184 and 3.740 and 1.047 and 2.844 and 2.829 and 3.142. The “ELISA optical density … serum dilution 1/400” value [4] was 1.187 and 1.526 and 0.987 and 1.257 and 2.378 and >4.000 and 3.802 and 3.891 and 3.742 and 3.885 and 3.660 and 1.001 and 3.548 and 3.151 and 3.752, the “ELISA optical density … serum dilution 1/800” value [4] was 1.110 and 1.341 and 0.818 and 1.093 and 2.236 and >4.000 and 3.867 and 3.833 and 3.665 and 3.171 and 3.717 and 0.856 and 3.406 and 3.707 and 3.620 and the “ELISA optical density … serum dilution 1/1600” value [4] was 1.589 and 1.086 and 1.084 and 0.771 and 1.427 and >4.000 and 3.813 and 3.843 and 3.612 and 3.055 and 3.832 and 0.510 and 3.562 and 3.780 and 3.976. The “Titer (ARFP-specific Ig)” value [4] was >1600 (13×) and 800 (2×).

Source: patent publication US20090239794A1, “HCV F PROTEIN AND USES THEREOF” (priority 2004, published 2009)
